Measurements taken from paper PMC2644404 (Journal of molecular biology, 2008).

Molecular target: T1, Human salivary α-amylase (human, UniProt P0DUB6 16-511)
T1 sequence (looked up): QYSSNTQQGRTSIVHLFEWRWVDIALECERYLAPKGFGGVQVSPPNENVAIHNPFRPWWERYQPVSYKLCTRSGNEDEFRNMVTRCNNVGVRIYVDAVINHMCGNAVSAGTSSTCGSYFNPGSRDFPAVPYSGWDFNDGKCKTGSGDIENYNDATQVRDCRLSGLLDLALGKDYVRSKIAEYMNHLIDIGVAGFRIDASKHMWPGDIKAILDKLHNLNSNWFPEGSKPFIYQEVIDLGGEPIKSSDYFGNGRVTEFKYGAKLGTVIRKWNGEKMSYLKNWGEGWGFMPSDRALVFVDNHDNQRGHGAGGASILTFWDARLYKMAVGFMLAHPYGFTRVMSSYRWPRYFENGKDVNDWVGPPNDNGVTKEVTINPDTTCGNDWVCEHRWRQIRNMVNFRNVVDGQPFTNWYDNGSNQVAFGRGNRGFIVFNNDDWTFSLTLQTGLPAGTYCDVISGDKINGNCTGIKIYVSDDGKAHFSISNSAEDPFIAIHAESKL
Experiment: SPR

B1: Amylase binding protein A (natural protein, S. gordonii, UniProt A8AZZ3 1-195, looked up)
chain: MKKVLLSSVVALTLFAAAAPVFSADEATDAARNNDGAYYLQTQFTNADKVNEYLAQHDGEIRAEAAADPAVVAAKAALDAVEGGSHNYGEVKAAYEAAFNNAFNAVRNKYVQQFQATYNNATEQEGKTYIQGETPEQANARYLKRVGAANNQNPAAEDKGATTPASKEEAKKSEAAAKNAGKAAGKALPKTSAVK
**Q.** Which Ka does the source give for B1 here?
**A.** The Ka was 8.79e+07 M⁻¹.

**Q.** What about the Kd of the same binder?
**A.** Its Kd is 11.3 nM.

**Q.** And the koff?
**A.** The koff was 0.000307 s⁻¹.

**Q.** What about the kon of the same binder?
**A.** Its kon is 27000 M⁻¹ s⁻¹.
